Values of other authors as cited in PMC10578080.

Biological target: neuronal ternary SNARE complex (Rattus norvegicus) (UniProt P32851)
UniProt P32851, sequence (P32851 whole entry, chain 1 of 3): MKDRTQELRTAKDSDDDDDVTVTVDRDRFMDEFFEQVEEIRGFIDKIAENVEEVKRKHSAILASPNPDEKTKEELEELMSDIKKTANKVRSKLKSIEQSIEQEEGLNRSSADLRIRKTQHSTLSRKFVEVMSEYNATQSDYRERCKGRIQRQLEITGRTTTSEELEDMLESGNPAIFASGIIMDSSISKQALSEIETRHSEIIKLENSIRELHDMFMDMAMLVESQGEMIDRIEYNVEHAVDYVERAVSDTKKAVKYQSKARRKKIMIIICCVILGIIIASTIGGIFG
UniProt P32851, sequence (B2RAU4 whole entry, chain 2 of 3, further chain): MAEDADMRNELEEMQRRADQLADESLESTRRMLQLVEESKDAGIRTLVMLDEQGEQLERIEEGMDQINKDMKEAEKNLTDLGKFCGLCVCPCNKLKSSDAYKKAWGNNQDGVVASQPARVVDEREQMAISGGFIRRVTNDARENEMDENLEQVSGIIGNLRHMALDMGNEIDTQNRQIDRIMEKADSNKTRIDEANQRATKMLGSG
UniProt P32851, sequence (P63044 2-116, chain 3 of 3, further chain): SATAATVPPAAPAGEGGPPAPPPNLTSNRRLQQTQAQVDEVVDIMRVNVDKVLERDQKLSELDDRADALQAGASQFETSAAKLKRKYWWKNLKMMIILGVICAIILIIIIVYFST

Kd: 10 nM
Substance: Cpx1 central domain (from UniProt P63041)
